The chains are these.
B1: Glu3-tagged Bax α9 peptide (Bax residues Gly166 to Gly192) (peptide, UniProt Q07812 166-192, looked up)
chain: GTPTWQTVTIFVAGVLTASLTIWKKMG

No end group written: not given here. *: point of attachment. MTSL = nitroxide spin label, CC1(C)C=C(CS*)C(C)(C)N1[O]

The series “cross-linking” deals with the molecule itself. In words: cross-linking.
Series [1] has as its target B1. Briefly: NMR paramagnetic relaxation enhancement.

The stoichiometry N is a count of units in the complex or per binding partner. For B1, the “stoichiometry N” value in the series “cross-linking” was 2.

Turning to GTPTWQTVTIFVAC(MTSL)VLTASLTIWKKMG (peptide, UniProt Q07812 166-192, looked up) [Bax (α9) G179C with MTSL spin probe], the binding result in series [1] is “binds”.

In the case of GTPTWQC(MTSL)VTIFVAGVLTASLTIWKKMG (peptide, UniProt Q07812 166-192, looked up) [Bax (α9) T172C with MTSL spin probe], the binding result in series [1] is on record as “binds”.

With GTPTWQTVTIFVAGVLTASLTIC(MTSL)KKMG (peptide, UniProt Q07812 166-192, looked up) [Bax (α9) W188C with MTSL spin probe], the binding result in series [1] is “binds”.

The values are drawn from article doi:10.64898/2025.12.30.697096 (bioRxiv, 2025).
